{
  "source": "paper PMC9882672",
  "molecular_target": "ferroportin (human (endogenous in HEK 293)) (UniProt Q9NP59)",
  "sequence (Q9NP59 whole entry)": "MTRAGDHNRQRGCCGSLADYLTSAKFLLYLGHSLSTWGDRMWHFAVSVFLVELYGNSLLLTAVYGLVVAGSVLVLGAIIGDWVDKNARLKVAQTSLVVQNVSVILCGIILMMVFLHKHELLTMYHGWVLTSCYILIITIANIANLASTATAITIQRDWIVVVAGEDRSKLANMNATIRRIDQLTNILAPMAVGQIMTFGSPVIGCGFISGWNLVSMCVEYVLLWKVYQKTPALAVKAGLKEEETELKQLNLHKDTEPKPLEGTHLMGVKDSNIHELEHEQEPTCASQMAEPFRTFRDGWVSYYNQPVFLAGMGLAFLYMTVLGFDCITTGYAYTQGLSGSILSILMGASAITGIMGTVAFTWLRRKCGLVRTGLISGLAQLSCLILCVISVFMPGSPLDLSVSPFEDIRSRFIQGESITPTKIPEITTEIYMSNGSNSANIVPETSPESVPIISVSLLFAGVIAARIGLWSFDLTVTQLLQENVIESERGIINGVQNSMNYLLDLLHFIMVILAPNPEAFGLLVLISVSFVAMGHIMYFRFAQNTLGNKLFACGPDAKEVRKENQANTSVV",
  "data": [
    {"substance": "hepcidin (peptide)", "values": [
      {"measurement": "membrane Fpn of HEK 293 cells with 500 nM hepcidin for 5 to 60 minutes (membrane protein isolation, immunoblot), decrease compared to holo-Tf treatment", "value": 70, "unit": "%"}
    ]},
    {"substance": "holo (iron bound)-transferrin (from UniProt P02787 20-698) (natural protein)", "values": [
      {"measurement": "membrane Fpn of HEK 293 cells with 0.25 μM holo-Tf for 5 to 60 minutes (membrane protein isolation, immunoblot), decrease compared to 0 minutes", "value": 20, "unit": "%"}
    ]}
  ]
}
